Reference: US11319551B2, “Methods and compositions for PPO herbicide tolerance in plants” (Monsanto Technology LLC, priority 2015, dated 2022)
Where a chain is given by its changes, count along the chain named.

B1: R2N90: microbial HemY protoporphyrinogen oxidase, SEQ ID NO:4 (protein, listed as Bacillus pumilus)
chain: MHDNQKHLVIIGGGITGLAAAFYLEKEVEEKGLPIQISLIEASPRLGGKIQTLYKDGYIIERGPDSFLERKVSGPQLAKDVGLSDQLVNNETGQAYVLVNEKLHPMPKGAVMGIPTQISPFITTGLFSVAGKARAAMDFVLPKSKQTEDQSLGEFFRRRVGDEVVENLIEPLLSGIYAGDIDRLSLMSTFPQFYQTEQQHRSLILGMKKSQQHAKAQQVTAKKQGQFQTINQGLQSLVEAVEGKLKLTTVYKGTKVKQIEKTDGGYGLQLDSGQTLFADSAIVTTPHQSIYSMFPKEAGLEYLHDMTSTSVATVALGFKDEDVHNEYDGTGFVISRNSDFSITACTWTNKKWPHTAPKGKTLLRAYVGKAGDESIVEQSDSQIVSIVLEDLKKIMDIKADPELTTVTRWKTSMPQYHVGHQKAISNMRETFKQSYPGVYITGAAFEGVGIPDCIDQGKAAISEAVSYLFS
B2: R2N100: microbial HemY protoporphyrinogen oxidase, SEQ ID NO:5 (protein, listed as Bacillus pumilus)
chain: B1 chain with K102T, Q199K, S236A, G243S, V250I, L268V, F277L, D320E, S381H

What was measured:
[1] = PPO enzyme assay, apparent Km for substrate; type: biochemical; conditions: substrate protoporphyrinogen
[2] = system: transgenic soybean plants; experiment: S-3100 tolerance of transformed soybean plantlets at five weeks; type: in vivo; design: key to Tolerance score to S-3100 at 5 weeks: 0 for poor tolerance, high damage, low green coloration; 1 for some tolerance, average damage, moderate green coloration; 2 for good tolerance, low damage, high green coloration; conditions: for tolerance to the PPO herbicide in high-throughput screening at five weeks: S-3100, over the constructs with different transit peptides; for Tolerance score to S-3100 at 5 weeks: day four post application
Method: The microbial HemY PPO enzymes were expressed in transgenic soybean plants, and the transgenic plants were analyzed for PPO herbicide tolerance. […] For plant transformation, the nucleotide sequences encoding the HemY PPO enzymes were codon optimized for dicot expression. This permitted the side-by-side comparison of the seven different HemY PPO enzymes with thirty-nine different targeting peptides using the same promoter and 3′UTR elements for gene expression
The plant transformation constructs were used to transform soybean excised embryos (germplasm A3555) using A. tumefaciens and standard methods known in the art. Four hundred explants were inoculated for each construct resulting in twelve containers per construct. A sterile PPO herbicide solution was used for herbicide tolerance testing. The herbicide solution consisted of 0.3 g of S-3100 in crop oil concentrate (5.0 mL) and 495 mL of deionized water. This was filtered through a 0.45 micron Nalgene® Rapid-Flow™ Tissue Culture Filter Unit and Surfactant-Free Cellulose Acetate membrane filter unit (VWR, Radnor, Pa., USA). The resulting sterile solution was shaken before application.
At five weeks post-transformation, four of the twelve plant containers per construct were sprayed with two passes of the sterile PPO herbicide solution. The treated plantlets were then enclosed in the container and received at least 15 hours of light exposure post spray each day for four days. At the end of day four post application of S-3100, the treated plantlets were photographed and scored on a visual scale of green coloration (green coloration was representative of healthy photosynthetic plant tissue as compared to photo-bleached tissue) versus damage. The scoring values were 0 for poor tolerance, high damage, low green coloration; 1 for some tolerance, average damage, moderate green coloration; and 2 for good tolerance, low damage, high green coloration. The results of herbicide application of S-3100 at five weeks is presented in Table 5, where n.d. indicates the analysis was not conducted.

[3] = system: hemG knockout E. coli strain; type: cell-based; conditions: acifluorfen and S-3100

Molecule | Km [1] [µM] | tolerance to the PPO herbicide in high-throughput screening at five weeks [2] | Tolerance score to S-3100 at 5 weeks ([2]; targeting peptide TP2) | Tolerance score to S-3100 at 5 weeks ([2]; targeting peptide TP5) | Tolerance score to S-3100 at 5 weeks ([2]; targeting peptide TP8) | Tolerance score to S-3100 at 5 weeks ([2]; targeting peptide TP10) | Tolerance score to S-3100 at 5 weeks ([2]; targeting peptide TP12) | Tolerance score to S-3100 at 5 weeks ([2]; targeting peptide TP14) | Tolerance score to S-3100 at 5 weeks ([2]; targeting peptide TP18) | Tolerance score to S-3100 at 5 weeks ([2]; targeting peptide TP19) | Tolerance score to S-3100 at 5 weeks ([2]; targeting peptide TP21) | Tolerance score to S-3100 at 5 weeks ([2]; targeting peptide TP22) | Tolerance score to S-3100 at 5 weeks ([2]; targeting peptide TP23) | Tolerance score to S-3100 at 5 weeks ([2]; targeting peptide TP24) | Tolerance score to S-3100 at 5 weeks ([2]; targeting peptide TP27) | Tolerance score to S-3100 at 5 weeks ([2]; targeting peptide TP28) | Tolerance score to S-3100 at 5 weeks ([2]; targeting peptide TP29) | Tolerance score to S-3100 at 5 weeks ([2]; targeting peptide TP30) | Tolerance score to S-3100 at 5 weeks ([2]; targeting peptide TP31) | Tolerance score to S-3100 at 5 weeks ([2]; targeting peptide TP32) | also measured
B1 | 2.8 | did not provide tolerance | 0 | 0 | 1 | 0 | 1 | 0 | 1 | 1 | 1 | 0 | 1 | 0 | 0 | 0 | 0 | 0 | 0 | 0 | Tolerance score to S-3100 at 5 weeks ([2]; targeting peptide TP9): 1; Tolerance score to S-3100 at 5 weeks ([2]; targeting peptide TP13): 0; Tolerance score to S-3100 at 5 weeks ([2]; targeting peptide TP16): 0; Tolerance score to S-3100 at 5 weeks ([2]; targeting peptide TP20): 0; Tolerance score to S-3100 at 5 weeks ([2]; targeting peptide TP33): 0; growth rate of hemG knockout E. coli strain in presence of PPO herbicide [3]: slower; tolerance to acifluorfen and S-3100 compared with strain containing R2N30 or R2N40 [3]: much better
B2 | 0.4 | did not provide tolerance | 0 | 0 | 1 | 1 | 0 | 1 | 1 | 1 | 0 | 0 | 0 | 0 | 0 | 1 | 0 | 0 | 1 | 0 | Tolerance score to S-3100 at 5 weeks ([2]; targeting peptide TP1): 0; Tolerance score to S-3100 at 5 weeks ([2]; targeting peptide TP3): 0; Tolerance score to S-3100 at 5 weeks ([2]; targeting peptide TP4): 0; Tolerance score to S-3100 at 5 weeks ([2]; targeting peptide TP6): 0; Tolerance score to S-3100 at 5 weeks ([2]; targeting peptide TP15): 0; Tolerance score to S-3100 at 5 weeks ([2]; targeting peptide TP17): 0; Tolerance score to S-3100 at 5 weeks ([2]; targeting peptide TP25): 0; Tolerance score to S-3100 at 5 weeks ([2]; targeting peptide TP26): 1; Tolerance score to S-3100 at 5 weeks ([2]; targeting peptide TP33): 0; Tolerance score to S-3100 at 5 weeks ([2]; targeting peptide TP36): 0; Tolerance score to S-3100 at 5 weeks ([2]; targeting peptide TP37): 0; growth rate of hemG knockout E. coli strain in presence of PPO herbicide [3]: slower; tolerance to acifluorfen and S-3100 compared with strain containing R2N30 or R2N40 [3]: much better
